Experimental data: paper PMC12005725

Columns and labels:
[1] = biological target: axonemes (purified from sea urchin sperm flagella) (sea urchin); experiment: single-molecule fluorescence microscopy (TIRF), dwell time; oxidized condition (no 2-mercaptoethanol); axonemes on the slide, 200 or 500 pM GFP-kinesin in solution, 1 mM ATP, 100 mM KCl, BRB12; 10 ms resolution; k2_SMF is the inverse of the mean dwell time
[2] = biological target: microtubule (polymerized tubulin, taxol-stabilised) (UniProt P02550)
[3] = biological target: microtubule (polymerized tubulin, taxol-stabilised) (UniProt P02550); experiment: stopped-flow turbidity (light scattering); oxidized condition (10 uM CuCl2, 20 uM o-phenanthroline); nucleotide-free complex of 3.2 uM kinesin and 4 uM microtubule (20 uM taxol, 0.1 U/ml apyrase), 150 mM KCl added, rapidly mixed with 1 mM ATP plus 150 mM KCl; BRB25 pH 6.8, 25 C; turbidity at 340 nm, burst equation
[4] = biological target: microtubule (polymerized tubulin, taxol-stabilised) (UniProt P02550); experiment: stopped-flow turbidity (light scattering); reduced condition (10 mM DTT); nucleotide-free complex of 3.2 uM kinesin and 4 uM microtubule (20 uM taxol, 0.1 U/ml apyrase), 150 mM KCl added, rapidly mixed with 1 mM ATP plus 150 mM KCl; BRB25 pH 6.8, 25 C; turbidity at 340 nm, burst equation
[5] = biological target: axonemes (purified from sea urchin sperm flagella) (sea urchin); experiment: single-molecule fluorescence microscopy (TIRF), dwell time; reducing condition (70 mM 2-mercaptoethanol); axonemes on the slide, 200 or 500 pM GFP-kinesin in solution, 1 mM ATP, 100 mM KCl, BRB12; 10 ms resolution; k2_SMF is the inverse of the mean dwell time
[6] = biological target: microtubule (polymerized tubulin, taxol-stabilised) (UniProt P02550); experiment: single-molecule fluorescence (smFRET with Alexa-ATP, TIRF) on microtubules; microtubules on a poly-L-lysine-coated slide, 100 pM ATTO488-kinesin, 500 nM Alexa Fluor 647 ATP, 150 mM KCl, 20 uM taxol, BRB12, 22 C, 10 ms exposure
[7] = biological target: microtubule (polymerized tubulin, taxol-stabilised) (UniProt P02550); remark: listed apart in the source
[8] = biological target: microtubule (polymerized tubulin, taxol-stabilised) (UniProt P02550); experiment: high-speed total internal reflection dark-field microscopy of gold-labeled kinesin; microtubules held on glass by protein A and anti-alpha-tubulin antibody, 3 nM gold-labeled kinesin, BRB12 with 20 mM KCl and 1-1000 uM ATP, 24-26 C, 20,000 fps; bound and unbound states of the gold-labeled WT head while the E236A head stays bound

UniProt P02550, sequence (P02550 whole entry, looked up): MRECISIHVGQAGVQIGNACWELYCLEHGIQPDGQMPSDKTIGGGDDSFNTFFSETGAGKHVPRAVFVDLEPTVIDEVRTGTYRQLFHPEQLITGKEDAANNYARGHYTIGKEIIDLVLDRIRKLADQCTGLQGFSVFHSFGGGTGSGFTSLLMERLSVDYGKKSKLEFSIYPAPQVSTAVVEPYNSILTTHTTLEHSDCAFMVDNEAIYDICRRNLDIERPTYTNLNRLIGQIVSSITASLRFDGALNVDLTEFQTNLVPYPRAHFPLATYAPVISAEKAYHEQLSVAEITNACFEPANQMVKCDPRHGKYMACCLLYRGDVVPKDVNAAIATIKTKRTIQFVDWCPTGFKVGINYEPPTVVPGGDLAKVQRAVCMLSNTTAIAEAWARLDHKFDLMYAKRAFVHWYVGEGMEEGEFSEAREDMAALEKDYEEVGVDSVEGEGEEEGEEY

## GFP-fused K339 Cys-light C47/C328 kinesin, oxidized (front head crosslink) (from UniProt P33176 1-339) (domain or fragment)
[1]
  fold increase of the binding frequency to the microtubule after crosslinking: 4 fold
  k2 SMF (inverse of the mean dwell time on the microtubule, 1 mM ATP): 2.3 s⁻¹

## Cys-light K339 C47/C335 monomer, oxidized (disulfide-crosslinked; loose backward crosslink) (from UniProt P33176 1-339) (domain or fragment)
[2]
  Km(MT) of the steady-state microtubule-activated ATPase, oxidized condition: 0.1 µM
[3]
  k2 (ATP-induced dissociation rate from microtubule, light scattering): 19.4 s⁻¹

## Cys-light K339 C47/C328 monomer, oxidized (disulfide-crosslinked; front head crosslink) (from UniProt P33176 1-339) (domain or fragment)
[2]
  Km(MT) of the steady-state microtubule-activated ATPase, oxidized condition: 0.13 µM
[3]
  k2 (ATP-induced dissociation rate from microtubule, light scattering): 7 s⁻¹

## GFP-fused K339 Cys-light C4/C330 kinesin, oxidized (crosslinked) (from UniProt P33176 1-339) (domain or fragment)
[1]
  k2 SMF (inverse of the mean dwell time on the microtubule, 1 mM ATP): 58.4 s⁻¹

## Cys-light K339 C222/C334 monomer, oxidized (disulfide-crosslinked; rear head crosslink) (from UniProt P33176 1-339) (domain or fragment)
[2]
  Km(MT) of the steady-state microtubule-activated ATPase, oxidized condition: 0.2 µM

## Cys-light K339 C47/C335 monomer, reduced (un-crosslinked) (from UniProt P33176 1-339) (domain or fragment)
[2]
  Km(MT) of the steady-state microtubule-activated ATPase, reduced condition: 0.33 µM
[4]
  k2 (ATP-induced dissociation rate from microtubule, light scattering): 41.6 s⁻¹

## GFP-fused K339 Cys-light C47/C328 kinesin, reduced (from UniProt P33176 1-339) (domain or fragment)
[5]
  k2 SMF (inverse of the mean dwell time on the microtubule, 1 mM ATP): 42.1 s⁻¹

## GFP-fused K339 Cys-light C47/C335 kinesin, reduced (from UniProt P33176 1-339) (domain or fragment)
[5]
  k2 SMF (inverse of the mean dwell time on the microtubule, 1 mM ATP): 52.1 s⁻¹

## GFP-fused K339 Cys-light C222/C334 kinesin, reduced (from UniProt P33176 1-339) (domain or fragment)
[5]
  k2 SMF (inverse of the mean dwell time on the microtubule, 1 mM ATP): 47.2 s⁻¹

## Cys-light K339 C4/C330 monomer, oxidized (disulfide-crosslinked between cover strand and neck linker) (from UniProt P33176 1-339) (domain or fragment)
[2]
  Km(MT) of the steady-state microtubule-activated ATPase, oxidized condition: 8.36 µM
[3]
  k2 (ATP-induced dissociation rate from microtubule, light scattering): 80.8 s⁻¹

## GFP-fused K339 Cys-light C4/C330 kinesin, reduced (from UniProt P33176 1-339) (domain or fragment)
[5]
  k2 SMF (inverse of the mean dwell time on the microtubule, 1 mM ATP): 59.5 s⁻¹

## ATTO488-labeled 'wild-type' monomer (Cys-light K349 monomeric kinesin with Cys55) (from UniProt P33176 1-349) (domain or fragment)
[6]
  inverse of the mean dwell time for head dissociation (Alexa-ATP-bound state ending in detachment from the microtubule): 89.7 s^–1

## GFP-fused K339 Cys-light kinesin (WT, no cysteine introduction) (from UniProt P33176 1-339) (domain or fragment)
[1]
  k2 SMF (inverse of the mean dwell time on the microtubule, 1 mM ATP): 41.6 s⁻¹
[5]
  k2 SMF (inverse of the mean dwell time on the microtubule, 1 mM ATP): 44 s⁻¹

## E236A–WT heterodimer with a 12 poly-Gly insertion (G12), WT head labeled with a gold nanoparticle (from UniProt P33176 1-490; P33176 1-490) (complex)
[7]
  Km (MT) of the microtubule-activated ATPase of the heterodimer (G12): 0.14 µM
[8]
  dwell time of the WT head bound at the front-binding site at 1 mM ATP: 111 ms
  dwell time of the WT head bound at the rear-tubulin-binding site at 1 mM ATP: 19 ms
  kcat of the inverse bound dwell time against ATP, taken as the ATP-induced detachment rate k2 of the front WT head: 9.3 s^–1

## GFP-fused K339 Cys-light C47/C335 kinesin, oxidized (crosslinked) (from UniProt P33176 1-339) (domain or fragment)
[1]
  k2 SMF (inverse of the mean dwell time on the microtubule, 1 mM ATP): 22.5 s⁻¹

## E236A–WT heterodimer with a 7 poly-Gly insertion (G7), WT head labeled with a gold nanoparticle (from UniProt P33176 1-490; P33176 1-490) (complex)
[7]
  Km (MT) of the microtubule-activated ATPase of the heterodimer (G7): 0.18 µM
[8]
  kcat of the inverse bound dwell time against ATP, taken as the ATP-induced detachment rate k2 of the front WT head: 7.6 s^–1

## Cys-light K339 monomeric kinesin with no cysteine introduction (WT) (from UniProt P33176 1-339) (domain or fragment)
[2]
  Km(MT) of the steady-state microtubule-activated ATPase, oxidized condition: 0.36 µM
  Km(MT) of the steady-state microtubule-activated ATPase, reduced condition: 0.31 µM
[4]
  k2 (ATP-induced dissociation rate from microtubule, light scattering): 52.1 s⁻¹
[3]
  k2 (ATP-induced dissociation rate from microtubule, light scattering): 59.1 s⁻¹

## Cys-light K339 C4/C330 monomer, reduced (un-crosslinked) (from UniProt P33176 1-339) (domain or fragment)
[2]
  Km(MT) of the steady-state microtubule-activated ATPase, reduced condition: 0.42 µM
[4]
  k2 (ATP-induced dissociation rate from microtubule, light scattering): 68.6 s⁻¹

## Cys-light K339 C222/C334 monomer, reduced (un-crosslinked) (from UniProt P33176 1-339) (domain or fragment)
[2]
  Km(MT) of the steady-state microtubule-activated ATPase, reduced condition: 0.23 µM
[4]
  k2 (ATP-induced dissociation rate from microtubule, light scattering): 69.3 s⁻¹

## GFP-fused K339 Cys-light C222/C334 kinesin, oxidized (rear head crosslink) (from UniProt P33176 1-339) (domain or fragment)
[1]
  fold reduction of the binding frequency to the microtubule after crosslinking: 6 fold
  k2 SMF (inverse of the mean dwell time on the microtubule, 1 mM ATP): 57.1 s⁻¹

## Cys-light K339 C47/C328 monomer, reduced (un-crosslinked) (from UniProt P33176 1-339) (domain or fragment)
[2]
  Km(MT) of the steady-state microtubule-activated ATPase, reduced condition: 0.28 µM
[4]
  k2 (ATP-induced dissociation rate from microtubule, light scattering): 51.5 s⁻¹

## E236A–WT heterodimer without neck-linker extension (G0), WT head labeled with a gold nanoparticle (from UniProt P33176 1-490; P33176 1-490) (complex)
[7]
  Km (MT) of the microtubule-activated ATPase of the heterodimer (G0): 0.54 µM
[8]
  dwell time of the microtubule-bound state of the front WT head at 10 µM ATP: 1.1 s
  kcat of the inverse bound dwell time against ATP, taken as the ATP-promoted detachment rate k2 of the front WT head: 6.3 s^–1
  mean dwell time of the microtubule-bound state of the front WT head at 1 mM ATP: 160 ms
  mean dwell time of the unbound state of the front WT head at 1 mM ATP: 11 ms
